Source: publication PMC4380549

Biological target: FGFR3 TM-JM-YFP/mCherry (human)
Assay: FRET or BRET

How did the percent dimer turn out when “FGFR3 TM-JM-YFP/mCherry (domain or fragment)” was run?
The percent dimer was 100%.
